Experimental data from US20200172904A1 (MIT, published 2020).

Target: FMR1 (mouse, UniProt P35922 1-614)
Test: co-IP of Mena from E15.5 mouse brain lysates, western blot
Experimental: Collected lysates were cleared by centrifugation for 20 minutes 14k rpm at 4° C., and incubated overnight at 4° C. with antibodies on magnetic protein G beads (incubated in PBS for 4 hours at 4° C. After IP, beads were washed three times with lysis buffer containing 0.4% NP40, and boiled in 2× sodium dodecyl sulfate (SDS) sample buffer for loading onto an acrylamide gel either for western blotting or for Mass Spectrometry.
Mass spectrometry was performed after immunoprecipitation (IP) of Mena from lysates of E15.5 mouse brains from Mena-wild type and Mena-deficient animals. […] To verify the specificity of these interactions, co-IP experiments from E15.5 mouse brains was performed using Mena-deficient brain lysates or isotype-specific antibodies as negative controls.

binding result: no binding
B1: Mouse Mena/ENAH (Protein enabled homolog) (other)
chain: MSEQSICQARAAVMVYDDANKKWVPAGGSTGFSRVHIYHHTGNNTFRVVGRKIQDHQVVINCAIPKGLKYNQATQTFHQWRDARQVYGLNFGSKEDANVFASAMMHALEVLNSQEAAQSKVTATQDSTNLRCIFCGPTLPRQNSQLPAQVQNGPSQEELEIQRRQLQEQQRQKELERERMERERLERERLERERLERERLEQEQLERQRQEREHVERLERERLERLERERQERERERLEQLEREQVEWERERRMSNAAPSSDSSLSSAPLPEYSSCQPPSAPPPSYAKVISAPVSDATPDYAVVTALPPTSTPPTPPLRHAATRFATSLGSAFHPVLPHYATVPRPLNKNSRPSSPVNTPSSQPPAAKSCAWPTSNFSPLPPSPPIMISSPPGKATGPRPVLPVCVSSPVPQMPPSPTAPNGSLDSVTYPVSPPPTSGPAAPPPPPPPPPPPPPPPLPPPPLPPLASLSHCGSQASPPPGTPLASTPSSKPSVLPSPSAGAPASAETPLNPELGDSSASEPGLQAASQPAESPTPQGLVLGPPAPPPPPPLPSGPAYASALPPPPGPPPPPPLPSTGPPPPPPPPPPLPNQAPPPPPPPPAPPLPASGIFSGSTSEDNRPLTGLAAAIAGAKLRKVSRVEDGSFPGGGNTGSVSLASSKADAGRGNGPLPLGGSGLMEEMSALLARRRRIAEKGSTIETEQKEDRNEDAEPITAKAPSTSTPEPTRKPWERTNTMNGSKSPVISRPKSTPSSQPSANGVQTEGLDYDRLKQDILDEMRKELAKLKEELIDAIRQELSKSNTA
notes: Endogenous Mena from E15.5 mouse brain lysates, cultured mouse cortical neurons, N2A cells or MEFs
